Data taken from paper PMC11782696, “Claudin-11 regulates immunological barrier formation and spermatogonial proliferation through stem cell factor” (Communications Biology, 2025).

Biological target: T1, MBP fusion protein of the PDZ1 domain (aa 19-113) of mouse ZO1 (mouse, UniProt P39447 19-113)
T1 construct: zonula occludens 1 (ZO1), mouse, PDZ1 domain, aa 19-113 of the 1,745-amino-acid protein; Expression vector provided by Masahiko Itoh; also called MBP-zPDZ1; PDZ1 of ZO1; source: E. coli DH5α, purified (amylose resin, eluted with 10 mM maltose)
T1 sequence (looked up): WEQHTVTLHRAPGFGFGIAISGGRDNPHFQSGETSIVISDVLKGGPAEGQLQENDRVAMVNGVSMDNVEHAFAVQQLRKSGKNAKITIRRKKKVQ
Assay: pull-down; GST-fused proteins on Glutathione Sepharose 4B beads incubated with eluted MBP-fused proteins at 4 °C overnight in buffer A (50 mM Tris-HCl pH 8.0, 50 mM NaCl, 1 mM EDTA, 1 mM DTT); washed three times; SDS-PAGE and Coomassie Brilliant Blue staining
Settings: both partners purified

- binding result: binds
B1: GST fusion protein of the C-terminal 29 amino acids of mouse CLDN11 (aa 179-207) (domain or fragment, UniProt Q60771 179-207, looked up)
chain: SGDAQSFGENRFYYSSGSSSPTHAKSAHV
notes: claudin-11 (CLDN11), mouse, C-terminal 29 amino acids, aa 179-207 of the 207-residue protein; also called GST-CL11; claudin-11 C-terminus
